The target in this experiment is ActR-IIB extracellular domain (type II receptor ectodomain) (UniProt Q13705). The experiment is described as follows: SPR; Reichert4SPR; biotinylated receptor ectodomains immobilised on a streptavidin-coated CMD200 chip (350-500 RU); BMP2 ligands as analytes, six concentrations from 160 nM (log 2 dilution series); 25 °C; 10 mM HEPES pH 7.4, 500 mM NaCl, 3.4 mM EDTA, 0.005% Tween-20; 10 μL/min; 1:1 Langmuir global fit; apparent KD, mean of two independent experiments. A general note: Surface plasmon resonance follows binding to a sensor surface in real time, without labels.
Chain of UniProt Q13705 (Q13705 19-137): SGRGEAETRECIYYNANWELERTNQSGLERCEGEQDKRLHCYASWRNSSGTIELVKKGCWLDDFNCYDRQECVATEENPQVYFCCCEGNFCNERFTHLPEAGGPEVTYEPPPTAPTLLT

Turning to “BMP2 Azide (BMP2 variant with H-L-Lys(EO-N3)-OH at position 83 of each chain) (ligand)”, the Kd was 11.6 nM.

(Values after publication PMC8999711.)
